Reference: the supplement of paper PMC10567573

B1: EHMT1 (parent)
chain: EEINKNISDFGRQQLLPPFPSLHQ
B2: TTC32 (parent)
chain: YSAYIRRCACAASSDESPGSKCSP

Variants of: B1
Assay: protein stability index of a GFP-peptide fusion (GPS, HEK-293T) (PSI 1-6); higher = more stable
Details: c terminus: a fixed tail appended
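Also: lentivirally expressed fusions sorted by FACS into six bins by GFP to DsRed ratio, PSI derived from sequencing read proportions per bin multiplied by bin number.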

Row | Variant | protein stability index
1 | E2F | 1.74
2 | E2A | 2.3
3 | E2D | 2.72
4 | E2S | 2.35
5 | E2T | 2.85
6 | E2I | 2.14
7 | E2C | 2.35
8 | E2M | 2.24
9 | E2H | 1.96
10 | E2N | 2.29
11 | E2V | 2.12
12 | E2W | 1.73
13 | E2P | 2.65
14 | E2R | 2.17
15 | E2K | 2.64
16 | E2G | 2.51
17 | E2Y | 1.58
18 | E2Q | 2.36
19 | E2L | 2.21
20 | K5N | 3.28
21 | K5R | 2.57
22 | K5H | 2.86
23 | K5E | 3.15
24 | K5Y | 2.13

Row | Variant | protein stability index
25 | K5D | 3.37
26 | K5Q | 3.11
27 | K5L | 2.72
28 | K5W | 2.6
29 | K5G | 2.71
30 | K5S | 2.84
31 | K5V | 2.68
32 | K5I | 2.51
33 | K5P | 3.06
34 | K5M | 3.23
35 | K5C | 2.54
36 | K5T | 3.16
37 | K5A | 3.05
38 | K5F | 2.28
39 | E1Y | 2.11
40 | E1A | 2.47
41 | E1M | 2.35
42 | E1W | 1.91
43 | E1I | 1.76
44 | E1H | 2.56
45 | E1K | 2.74
46 | E1D | 2.58
47 | E1Q | 2.73
48 | E1C | 2.44

Row | Variant | protein stability index
49 | E1G | 2.7
50 | E1T | 2.9
51 | E1V | 2.22
52 | E1L | 2.42
53 | E1N | 2.44
54 | E1R | 2.55
55 | E1P | 2.54
56 | E1F | 2.3
57 | E1S | 3.23
58 | I7A | 2.96
59 | I7Q | 3.58
60 | I7Y | 2.73
61 | I7N | 3.72
62 | I7D | 3.21
63 | I7P | 2.38
64 | I7S | 2.83
65 | I7G | 3.3
66 | I7K | 2.79
67 | I7R | 2.42
68 | I7V | 2.98
69 | I7C | 2.88
70 | I7W | 2.52
71 | I7M | 3.03
72 | I7T | 2.63

Row | Variant | protein stability index
73 | I7E | 3.38
74 | I7F | 3.31
75 | I7H | 2.73
76 | I7L | 2.97
77 | I3D | 3.77
78 | I3T | 3.11
79 | I3Y | 2.7
80 | I3A | 3.1
81 | I3H | 2.71
82 | I3N | 3.31
83 | I3S | 3.13
84 | I3V | 2.9
85 | I3M | 2.74
86 | I3R | 2.69
87 | I3Q | 2.69
88 | I3C | 2.76
89 | I3K | 3.02
90 | I3E | 3.78
91 | I3W | 2.39
92 | I3G | 3.01
93 | I3F | 2.91
94 | I3P | 2.68
95 | I3L | 2.95
96 | N4E | 2.86

Row | Variant | protein stability index
97 | N4Y | 2.01
98 | N4Q | 2.7
99 | N4L | 2.69
100 | N4V | 2.53
101 | N4C | 2.45
102 | N4M | 2.52
103 | N4D | 3.26
104 | N4K | 2.55
105 | N4F | 2.15
106 | N4W | 2.15
107 | N4H | 2.94
108 | N4G | 2.48
109 | N4I | 2.02
110 | N4R | 2.73
111 | N4S | 2.45
112 | N4T | 2.33
113 | N4P | 2.69
114 | N4A | 2.63
115 | N6D | 3.15
116 | N6C | 2.44
117 | N6A | 2.85
118 | N6H | 2.4
119 | N6G | 2.91
120 | N6V | 2.71

Row | Variant | protein stability index
121 | N6Q | 2.71
122 | N6K | 2.38
123 | N6M | 2.92
124 | N6W | 1.76
125 | N6L | 1.97
126 | N6S | 3.15
127 | N6F | 1.91
128 | N6I | 2.17
129 | N6Y | 2.09
130 | N6E | 2.91
131 | N6P | 2.92
132 | N6T | 2.65
133 | N6R | 2.1
134 | S8E | 2.86
135 | S8D | 3.07
136 | S8W | 2.02
137 | S8F | 2.64
138 | S8H | 2.77
139 | S8G | 2.55
140 | S8K | 3.02
141 | S8C | 2.62
142 | S8I | 2.82
143 | S8P | 3.12
144 | S8R | 2.71

Row | Variant | protein stability index
145 | S8V | 3.21
146 | S8T | 2.77
147 | S8N | 2.46
148 | S8Q | 2.64
149 | S8A | 3.22
150 | S8L | 2.12
151 | S8Y | 2.53
152 | S8M | 2.72
153 | D9A | 2.38
154 | D9I | 2.21
155 | D9C | 2.09
156 | D9K | 2.18
157 | D9M | 2.02
158 | D9H | 2.41
159 | D9G | 2.65
160 | D9L | 2.58
161 | D9Q | 2.63
162 | D9F | 2.1
163 | D9P | 2.45
164 | D9E | 2.5
165 | D9N | 2.43

Variants of: B2
Assay: as above
Details: c terminus: a fixed tail appended

Row | Variant | protein stability index
166 | A3W | 2.19
167 | I5N | 3.13
